Test results as given in article PMC10206189.

Legend:
VHH14-Fc (huarizo) [1] = test: BLI; Octet RED384, 25 °C, 1× Kinetics buffer; purified VHH-Fc captured on Protein G biosensors, mouse Plexin-B1 in solution (VHH14-Fc: 10-3.75 nM, 1800 s association, 7200 s dissociation; VHH15-Fc: 160-10 nM, 600 s, 510 s); global 1:1 fit
VHH14-Fc (huarizo) [2] = test: BLI; Octet RED384, 25 °C, 1× Kinetics buffer; VHH-Fc-loaded biosensors, mPlexin-B1 wildtype or H34Y P240Q at 400-6.25 nM, 300 s association, 600 s dissociation

Sequence of VHH14-Fc (huarizo) (heavy, as listed by the source): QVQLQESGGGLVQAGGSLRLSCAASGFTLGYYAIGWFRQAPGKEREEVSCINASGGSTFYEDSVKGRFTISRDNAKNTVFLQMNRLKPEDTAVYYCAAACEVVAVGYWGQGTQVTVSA

| Binder | Kd (VHH14-Fc (huarizo) [1]) | Kd (VHH14-Fc (huarizo) [2]) |
| --- | --- | --- |
| mouse Plexin-B1 (20–535)-6xHis (domain or fragment) LRSPLPAAFTANGTHLQHLARDPTTGTLYVGATNFLFQLSPGLQLEAVVSTGPVNDSRDCLPPVIPDECPQAQPTNNPNQLLLVSPEALVVCGSVHQGICELRSLGQIRQLLLRPERPGDTQYVAANDPAVSTVGLVAQGLVGEPLLFVGRGYTSRGVGGGIPPITTRALRPPDPQAAFSYEETAKLAVGRLSEYSHHFVSAFVRGASAYFLFLRRDLKAPSRAFRAYVSRVCLQDQHYYSYVELPLACQGGRYGLIQAAAVATSKEVARGDVLFAAFSSVAPPTVDWPLSASTGASGTSVLCAFPLDEVDQLANYTRDACYTREGRAENGTKVADIAYDVLSDCAQLPVDTPDAFPCGSDHTPSPMVSCVPLEATPILELPGVQLTAVAVTMEDGHTIAFLGDSQGQLHRVYLGPGRSAAPYSKQSIQPGSPVNRDLTFDGTFEHLYVATQTTLVKVPVAPCAQHLDCDSCLAHRDPYCGWCVLLGRCSRRSECSRDQGPEQWLWSFQPELGCLR | 0.237 nM | 3.13 nM |
| mPlexin-B1 (20–535) H34Y P240Q (domain or fragment) LRSPLPAAFTANGTYLQHLARDPTTGTLYVGATNFLFQLSPGLQLEAVVSTGPVNDSRDCLPPVIPDECPQAQPTNNPNQLLLVSPEALVVCGSVHQGICELRSLGQIRQLLLRPERPGDTQYVAANDPAVSTVGLVAQGLVGEPLLFVGRGYTSRGVGGGIPPITTRALRPPDPQAAFSYEETAKLAVGRLSEYSHHFVSAFVRGASAYFLFLRRDLKAQSRAFRAYVSRVCLQDQHYYSYVELPLACQGGRYGLIQAAAVATSKEVARGDVLFAAFSSVAPPTVDWPLSASTGASGTSVLCAFPLDEVDQLANYTRDACYTREGRAENGTKVADIAYDVLSDCAQLPVDTPDAFPCGSDHTPSPMVSCVPLEATPILELPGVQLTAVAVTMEDGHTIAFLGDSQGQLHRVYLGPGRSAAPYSKQSIQPGSPVNRDLTFDGTFEHLYVATQTTLVKVPVAPCAQHLDCDSCLAHRDPYCGWCVLLGRCSRRSECSRDQGPEQWLWSFQPELGCLR |  | 255 nM |
